These results are taken from article PMC9663324, “Structural and mutational studies suggest key residues to determine whether stomatin SPFH domains form dimers or trimers” (Biochemistry and Biophysics Reports, 2022).

This data set concerns the molecule itself. Kind of data set: SEC; Hi Load 16/60 Superdex 200 gel-filtration column, 50 mM Tris-HCl (pH 8.2), 50 mM NaCl, 1 mL/min; approximate molecular mass estimated from the elution of calibration proteins (44–669 kDa).

B1: PhStom (63–234) (domain or fragment, Pyrococcus horikoshii, UniProt O59180 63-234, looked up)
chain: VDLRTQVLDVPVQETITKDNVPVRVNAVVYFRVVDPVKAVTQVKNYIMATSQISQTTLRSVIGQAHLDELLSERDKLNMQLQRIIDEATDPWGIKVTAVEIKDVELPAGMQKAMARQAEAERERRARITLAEAERQAAEKLREAAEIISEHPMALQLRTLQTISDVAGDKSN
notes: stomatin PH1511 of Pyrococcus horikoshii, residues 63–234; Initial methionine added before residue 63; In the crystal (8GN9) only residues 64–169 are modelled; the authors consider that residues 170–234 (and so the tag) were degraded during crystallization; source: E. coli BL21 (DE3) Codon-Plus RIL, purified (heat 85 °C, Ni-NTA, Superdex 200 gel filtration)
The stoichiometry N is the number of molecules, sites or subunits per partner or assembly. As to B1, the “stoichiometry N” value is 2.

B2: PhStom (56–234) K59S (domain or fragment, Pyrococcus horikoshii, UniProt O59180 56-234, looked up)
chain: IFESAVIVDLRTQVLDVPVQETITKDNVPVRVNAVVYFRVVDPVKAVTQVKNYIMATSQISQTTLRSVIGQAHLDELLSERDKLNMQLQRIIDEATDPWGIKVTAVEIKDVELPAGMQKAMARQAEAERERRARITLAEAERQAAEKLREAAEIISEHPMALQLRTLQTISDVAGDKSN
notes: stomatin PH1511 of Pyrococcus horikoshii, residues 56–234 with K59S; Initial methionine added before residue 56; PDB 3BK6 is the parent (wild type) of the same limits; also called K59S mutant of PhStom (56–234); K59S mutant; source: E. coli BL21 (DE3) Codon-Plus RIL, purified (heat 85 °C, Ni-NTA, Superdex 200 gel filtration)
B2: the “stoichiometry N” value was 2.
